Patent US20020142429

Columns and labels:
[1] = target: rabbit reticulocyte eEF-2, P55823
[2] = target: calmodulin
[3] = target: Dictyostelium myosin (myosin heavy chains), P08799
Chain of Dictyostelium myosin (myosin heavy chains), P08799 (P08799 whole entry): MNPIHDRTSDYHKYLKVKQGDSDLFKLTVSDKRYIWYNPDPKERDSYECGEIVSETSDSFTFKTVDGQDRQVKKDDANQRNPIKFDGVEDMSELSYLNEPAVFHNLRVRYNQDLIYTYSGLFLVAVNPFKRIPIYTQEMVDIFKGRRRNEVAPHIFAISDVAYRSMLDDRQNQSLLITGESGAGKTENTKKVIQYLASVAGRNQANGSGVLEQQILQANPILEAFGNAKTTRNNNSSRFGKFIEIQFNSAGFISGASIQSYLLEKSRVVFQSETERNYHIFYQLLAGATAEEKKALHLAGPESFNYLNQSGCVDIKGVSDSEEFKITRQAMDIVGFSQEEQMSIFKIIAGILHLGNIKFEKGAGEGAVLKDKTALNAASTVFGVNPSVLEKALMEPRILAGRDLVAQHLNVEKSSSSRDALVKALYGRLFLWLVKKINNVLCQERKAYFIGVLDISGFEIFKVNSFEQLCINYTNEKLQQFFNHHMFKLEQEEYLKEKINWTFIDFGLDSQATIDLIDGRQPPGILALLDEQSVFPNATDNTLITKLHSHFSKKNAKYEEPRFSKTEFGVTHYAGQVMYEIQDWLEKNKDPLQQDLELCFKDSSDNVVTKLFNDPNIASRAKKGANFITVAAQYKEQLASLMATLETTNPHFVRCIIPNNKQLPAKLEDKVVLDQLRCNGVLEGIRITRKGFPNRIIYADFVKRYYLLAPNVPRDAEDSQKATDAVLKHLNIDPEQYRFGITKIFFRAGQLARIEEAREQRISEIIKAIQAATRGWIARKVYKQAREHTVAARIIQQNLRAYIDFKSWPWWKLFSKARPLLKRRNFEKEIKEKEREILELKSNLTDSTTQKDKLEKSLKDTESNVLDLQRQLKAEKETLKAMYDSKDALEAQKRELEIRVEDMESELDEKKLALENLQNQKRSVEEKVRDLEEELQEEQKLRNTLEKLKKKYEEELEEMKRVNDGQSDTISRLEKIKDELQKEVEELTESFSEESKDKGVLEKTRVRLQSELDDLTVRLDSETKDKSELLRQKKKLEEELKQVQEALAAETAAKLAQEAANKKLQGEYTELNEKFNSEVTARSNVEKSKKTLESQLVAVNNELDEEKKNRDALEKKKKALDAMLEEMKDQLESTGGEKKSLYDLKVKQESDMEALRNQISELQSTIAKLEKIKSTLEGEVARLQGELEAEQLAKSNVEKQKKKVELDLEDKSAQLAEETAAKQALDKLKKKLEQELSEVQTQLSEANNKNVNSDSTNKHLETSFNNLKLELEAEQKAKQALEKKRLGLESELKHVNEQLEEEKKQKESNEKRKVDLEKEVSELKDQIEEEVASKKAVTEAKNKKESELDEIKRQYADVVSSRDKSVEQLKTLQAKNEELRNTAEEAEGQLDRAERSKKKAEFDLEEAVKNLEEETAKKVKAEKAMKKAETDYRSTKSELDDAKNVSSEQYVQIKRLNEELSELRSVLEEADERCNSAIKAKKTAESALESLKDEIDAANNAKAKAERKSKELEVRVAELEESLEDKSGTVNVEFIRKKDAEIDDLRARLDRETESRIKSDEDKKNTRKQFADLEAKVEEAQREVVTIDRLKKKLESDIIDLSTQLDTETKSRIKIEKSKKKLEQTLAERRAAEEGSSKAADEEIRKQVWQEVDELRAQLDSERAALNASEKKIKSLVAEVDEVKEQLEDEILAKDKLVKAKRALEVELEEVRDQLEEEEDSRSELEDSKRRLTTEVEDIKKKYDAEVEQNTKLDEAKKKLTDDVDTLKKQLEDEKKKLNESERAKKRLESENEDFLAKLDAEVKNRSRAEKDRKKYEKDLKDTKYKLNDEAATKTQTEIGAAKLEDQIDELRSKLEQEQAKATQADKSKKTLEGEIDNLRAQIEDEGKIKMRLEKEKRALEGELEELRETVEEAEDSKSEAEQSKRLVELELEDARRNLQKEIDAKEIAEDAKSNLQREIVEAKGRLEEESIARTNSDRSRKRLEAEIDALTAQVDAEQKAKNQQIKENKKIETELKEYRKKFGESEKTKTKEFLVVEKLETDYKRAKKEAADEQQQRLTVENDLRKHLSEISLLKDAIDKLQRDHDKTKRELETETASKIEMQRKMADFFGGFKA

B1: human eEF-2 kinase glutathione S-transferase fusion protein (protein)
chain: MADEDLIFRLEGVDGGQSPRAGHDGDSDGDSDDEEGYFICPITDDPSSNQNVNSKVNKYYSNLTKSERYSSSGSPANSFHFKEAWKHAIQKAKHMPDPWAEFHLEDIATERATRHRYNAVTGEWLDDEVLIKMASQPFGRGAMRECFRTKKLSNFLHAQQWKGASNYVAKRYIEPVDRDVYFEDVRLQMEAKLWGEEYNRHKPPKQVDIMQMCIIELKDRPGKPLFHLEHYIEGKYIKYNSNSGFVRDDNIRLTPQAFSHFTFERSGHQLIVVDIQGVGDLYTDPQIHTETGTDFGDGNLGVRGMALFFYSHACNRICESMGLAPFDLSPRERDAVNQNTKLLQSAKTILRGTEEKCGSPQVRTLSGSRPPLLRPLSENSGDENMSDVTFDSLPSSPSSATPHSQKLDHLHWPVFSDLDNMASRDHDHLDNHRESENSGDSGYPSEKRGELDDPEPREHGHSYSNRKYESDEDSLGSSGRVCVEKWNLLNSSRLHLPRASAVALEVQRLNALDLEKKIGKSILGKVHLAMVRYHEGGRFCEKGEEWDQESAVFHLEHAANLGELEAIVGLGLMYSQLPHHILADVSLKETEENKTKGFDYLLKAAEAGDRQSMILVARAFDSGQNLSPDRCQDWLEALHWYNTALEMTDCDEGGEYDGMQDEPRYMMLAREAEMLFTGGYGLEKDPQRSGDLYTQAAEAAMEAMKGRLANQYYQKAEEAWAQMEE
Q: For B1, which “ability to phosphorylate eEF-2” value [1] is on record?
A: Its value is “All of the fusion eEF-2 kinase preparations were able to efficiently phosphorylate eEF-2 (data not shown)”.

Q: And the “phosphorylation of eEF-2” value [1]?
A: The value was “the ability of the recombinant enzyme to phosphorylate eEF-2 and to undergo autophosphorylation are strictly calmodulin-dependent (data not shown)”.

Q: And the “phosphorylation of eEF-2 and autophosphorylation, dependence on calmodulin” value [2]?
A: Its value is “the ability of the recombinant enzyme to phosphorylate eEF-2 and to undergo autophosphorylation are strictly calmodulin-dependent (data not shown)”.

B2: human eEF-2 kinase 6xHis fusion protein (protein)
chain: MADEDLIFRLEGVDGGQSPRAGHDGDSDGDSDDEEGYFICPITDDPSSNQNVNSKVNKYYSNLTKSERYSSSGSPANSFHFKEAWKHAIQKAKHMPDPWAEFHLEDIATERATRHRYNAVTGEWLDDEVLIKMASQPFGRGAMRECFRTKKLSNFLHAQQWKGASNYVAKRYIEPVDRDVYFEDVRLQMEAKLWGEEYNRHKPPKQVDIMQMCIIELKDRPGKPLFHLEHYIEGKYIKYNSNSGFVRDDNIRLTPQAFSHFTFERSGHQLIVVDIQGVGDLYTDPQIHTETGTDFGDGNLGVRGMALFFYSHACNRICESMGLAPFDLSPRERDAVNQNTKLLQSAKTILRGTEEKCGSPQVRTLSGSRPPLLRPLSENSGDENMSDVTFDSLPSSPSSATPHSQKLDHLHWPVFSDLDNMASRDHDHLDNHRESENSGDSGYPSEKRGELDDPEPREHGHSYSNRKYESDEDSLGSSGRVCVEKWNLLNSSRLHLPRASAVALEVQRLNALDLEKKIGKSILGKVHLAMVRYHEGGRFCEKGEEWDQESAVFHLEHAANLGELEAIVGLGLMYSQLPHHILADVSLKETEENKTKGFDYLLKAAEAGDRQSMILVARAFDSGQNLSPDRCQDWLEALHWYNTALEMTDCDEGGEYDGMQDEPRYMMLAREAEMLFTGGYGLEKDPQRSGDLYTQAAEAAMEAMKGRLANQYYQKAEEAWAQMEE
Q: For B2, which “ability to phosphorylate eEF-2” value [1] is on record?
A: The value was “All of the fusion eEF-2 kinase preparations were able to efficiently phosphorylate eEF-2 (data not shown)”.

B3: human eEF-2 kinase thioredoxin fusion protein (protein)
chain: MADEDLIFRLEGVDGGQSPRAGHDGDSDGDSDDEEGYFICPITDDPSSNQNVNSKVNKYYSNLTKSERYSSSGSPANSFHFKEAWKHAIQKAKHMPDPWAEFHLEDIATERATRHRYNAVTGEWLDDEVLIKMASQPFGRGAMRECFRTKKLSNFLHAQQWKGASNYVAKRYIEPVDRDVYFEDVRLQMEAKLWGEEYNRHKPPKQVDIMQMCIIELKDRPGKPLFHLEHYIEGKYIKYNSNSGFVRDDNIRLTPQAFSHFTFERSGHQLIVVDIQGVGDLYTDPQIHTETGTDFGDGNLGVRGMALFFYSHACNRICESMGLAPFDLSPRERDAVNQNTKLLQSAKTILRGTEEKCGSPQVRTLSGSRPPLLRPLSENSGDENMSDVTFDSLPSSPSSATPHSQKLDHLHWPVFSDLDNMASRDHDHLDNHRESENSGDSGYPSEKRGELDDPEPREHGHSYSNRKYESDEDSLGSSGRVCVEKWNLLNSSRLHLPRASAVALEVQRLNALDLEKKIGKSILGKVHLAMVRYHEGGRFCEKGEEWDQESAVFHLEHAANLGELEAIVGLGLMYSQLPHHILADVSLKETEENKTKGFDYLLKAAEAGDRQSMILVARAFDSGQNLSPDRCQDWLEALHWYNTALEMTDCDEGGEYDGMQDEPRYMMLAREAEMLFTGGYGLEKDPQRSGDLYTQAAEAAMEAMKGRLANQYYQKAEEAWAQMEE
Q: How did the “ability to phosphorylate eEF-2” value [1] turn out when B3 was run?
A: Its value is “All of the fusion eEF-2 kinase preparations were able to efficiently phosphorylate eEF-2 (data not shown)”.

B4: recombinant human eEF-2 kinase (expressed in a coupled transcription/translation system) (protein)
chain: MADEDLIFRLEGVDGGQSPRAGHDGDSDGDSDDEEGYFICPITDDPSSNQNVNSKVNKYYSNLTKSERYSSSGSPANSFHFKEAWKHAIQKAKHMPDPWAEFHLEDIATERATRHRYNAVTGEWLDDEVLIKMASQPFGRGAMRECFRTKKLSNFLHAQQWKGASNYVAKRYIEPVDRDVYFEDVRLQMEAKLWGEEYNRHKPPKQVDIMQMCIIELKDRPGKPLFHLEHYIEGKYIKYNSNSGFVRDDNIRLTPQAFSHFTFERSGHQLIVVDIQGVGDLYTDPQIHTETGTDFGDGNLGVRGMALFFYSHACNRICESMGLAPFDLSPRERDAVNQNTKLLQSAKTILRGTEEKCGSPQVRTLSGSRPPLLRPLSENSGDENMSDVTFDSLPSSPSSATPHSQKLDHLHWPVFSDLDNMASRDHDHLDNHRESENSGDSGYPSEKRGELDDPEPREHGHSYSNRKYESDEDSLGSSGRVCVEKWNLLNSSRLHLPRASAVALEVQRLNALDLEKKIGKSILGKVHLAMVRYHEGGRFCEKGEEWDQESAVFHLEHAANLGELEAIVGLGLMYSQLPHHILADVSLKETEENKTKGFDYLLKAAEAGDRQSMILVARAFDSGQNLSPDRCQDWLEALHWYNTALEMTDCDEGGEYDGMQDEPRYMMLAREAEMLFTGGYGLEKDPQRSGDLYTQAAEAAMEAMKGRLANQYYQKAEEAWAQMEE
Q: For B4, which “eEF-2 kinase activity in the presence and absence of Ca2+ and calmodulin” value [2] is on record?
A: The value was “the recombinant human eEF-2 kinase activity was strictly Ca^2+/calmodulin-dependant”.

B5: myosin heavy chain kinase A (MHCK A) from Dictyostelium (protein)
chain: MFNIKKRKESITGIPPINVNSPQSVPLSGTLQSPLITPNSPNFVSRQCPFKKFGCSSFLVSKAEFDNHLKDDAQFHLQLAVEKFDHQFDLHTQLMAHFTEQMEDQLEKTMKVVRNHTDSLGGNVQTKLDEGIEKCMAFAKKVEQQQQQLAKRLITQQIQEKKSTSSPLVKGGISGGGGSGGDDSFDGANISSMSTSKQELQQELQSLSIKMKKELTELSDELSQKLERSTGNIDIKIKRIEGEVNEKIDKRQLVSTIDDSIGKKTDSIGYTLESSIIKKVEEKEKKKSEQNQLLFDSKIESLKDKIKIIETQQLDTSSEVRKLKLESTSSGNLMAGLNGTSGRPSSSSHFIPSSVSAAANNINKNEIMEEVKKVEEKLQKKIREEIDNTKSELSKVERSVKDNRSEIEGLEKDCKNQFDKQDNKIKQVEDDLKKSDSLLLLMQNNLKKYNEFVDRERDRESERLKLQDSIKRLEQNQKKIEAEIQEGNEQVERVLREEASISPISSVPKSPITTKRSSIILNSPPMTSQQSSPKIQDLLSSSGSSSVSGINISSETGEMGILWEFDPIINKWIRLSMKLKVERKPFAEGALREAYHTVSLGVGTDENYPLGTTTKLFPPIEMISPISKNNEAMTQLKNGTKFVLKLYKKEAEQQASRELYFEDVKMQMVCRDWGNKFNQKKPPKKIEFLMSWVVELIDRSPSSNGQPILCSIEPLLVGEFKKNNSNYGAVLTNRSTPQAFSHFTYELSNKQMIVVDIQGVDDLYTDPQIHTPDGKGFGLGNLGKAGINKFITTHKCNAVCALLDLDVKLGGVLSGNNKKQLQQGTMVMPDILPELMPSDNTIKVGAKQLPKAEFSKKDLKCVSTIQSFRERVNSIAFFDNQKLLCAGYGDGTYRVFDVNDNWKCLYTVNGHRKSIESIACNSNYIFTSSPDNTIKVHIIRSGNTKCIETLVGHTGEVNCVVANEKYLFSCSYDKTIKVWDLSTFKEIKSFEGVHTKYIKTLALSGRYLFSGGNDQIIYVWDTETLSMLFNMQGHEDWVLSLHCTASYLFSTSKDNVIKIWDLSNFSCIDTLKGHWNSVSSCVVKDRYLYSGSEDNSIKVWDLDTLECVYTIPKSHSLGVKCLMVFNNQIISAAFDGSIKVWEWQSK
Q: B5 was tested. Which “phosphorylation assay (substrate specificity), 10 min” value [1] did it give?
A: Its value is “MHCK A cannot phosphorylate eEF-2”.

Q: What about the “phosphorylation assay (substrate specificity), 10 min” value [3] of the same protein?
A: Its value is “each of these kinases is specific for their respective substrates”.

B6: recombinant C. elegans eEF-2 kinase (translation products of the mixture of Cefk-1 and Cefk-2) (protein)
chain: MTIDTTNESDNSPTNSPGLEASARTFSLNASKMVRITDDYADEVFIEQNDVVIEKPRMDPLHVRKLMETWRKAARRARTNYIDPWDEFNIHEYPVQRAKRYRYSAIRKQWTEDIVDVRLHPDSFARGAMRECYRLKKCSKHGTSQDWSSNYVAKRYICQVDRRVLFDDVRLQMDAKLWAEEYNRYNPPKKIDIVQMCVIEMIDVKGSPLYHLEHFIEGKYIKYNSNSGFVSNAARLTPQAFSHFTFERSGHQMMVVDIQGVGDLYTDPQIHTVVGTDYGDGNLGTRGMALFFHSHRCNDICETMDLSNFELSPPEIEATEVAMEVAAKQKKSCIVPPTVFEARRNRISSECVHVEHGISMDQLRKRKTLNQSSTDLSAKSHNEDCVCPECIPVVEQLCEPCSEDEEDEEEDYPRSEKSGNSQKSRRSRMSISTRSSGDESASRPRKCGFVDLNSLRQRHDSFRSSVGTYSMNSSRQTRDTEKDEFWKVLRKQSVPANILSLQLQQMAANLENDEDVPQVTGHQFSVLGQIHIDLSRYHELGRFVEVDSEHKEMLEGSENDARVPIKYDKQSAIFHLDIARKCGILEAVLTSAHIVLGLPHELLKEVTVDDLFPNGFGEQENGIRADKGQKPCDLEEFGSDLMEIAAEMGDKGAMLYMAHAYETGQHLGPNRRTDYKKSIDWYQRVVGFQEEEELDSDCGKTTFSSFAPLTRHEILAKMAEMYKEGGYGLNQDFERAYGLFNEAAEAAMEAMNGKLANKYYEKAEMCGE
Q: Which results are given for B6?
A: eEF-2 kinase activity: phosphorylation of eEF-2 with [gamma-32P]ATP, SDS/PAGE and autoradiography [1]: The translation products of the mixture of Cefk-1 and Cefk-2 are able to phosphorylate eEF-2; eEF-2 phosphorylation activity in the presence and absence of Ca2+ and calmodulin [2]: The eEF-2 phosphorylation activity of the recombinant protein is Ca^2+/calmodulin-dependant
